Test results published in article PMC12768534 (Science immunology, 2025).

Target: mIL-21 (mouse, UniProt Q9ES17 18-146)
Experiment: BLI; mIL-21 and 21h10 incubated in PBS or murine serum for 1-240 minutes at 37°C, then binding to mIL-21R
Conditions: both partners purified

B1: biotinylated mIL-21R (receptor)
chain: not shown
modifications: biotin (biotinylated)
notes: murine IL-21 receptor, biotinylated recombinant protein; Held on streptavidin biosensors by its biotin; limits and tags are the vendor's; also called murine IL-21 receptor; source: bought: Acro Biosystems Cat# ILR-M82E3
binding result: binds
